For one molecule, EC50 results are on record in publication PMC11464762, “AXIN1 boosts antiviral response through IRF3 stabilization and induced phase separation” (Signal Transduction and Targeted Therapy, 2024).

The target of this assay is T1, GST-IRF3-IR (GST-tagged IRF3 IR domain) (GST carrier left out. Limits are not printed: the paired constructs IRF3-DP and IRF3-IR are read as DBD + proline-rich region and IAD + C-terminal regulatory (response) region. The IR start at about r).
T1 chain: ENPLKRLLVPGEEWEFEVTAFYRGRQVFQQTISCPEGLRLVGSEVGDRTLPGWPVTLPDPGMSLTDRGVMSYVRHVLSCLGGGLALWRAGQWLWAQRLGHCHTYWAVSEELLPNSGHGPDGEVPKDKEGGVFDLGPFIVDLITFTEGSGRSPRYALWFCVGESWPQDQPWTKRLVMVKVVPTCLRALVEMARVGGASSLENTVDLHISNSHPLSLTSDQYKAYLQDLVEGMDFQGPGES
The assay is described as follows: ELISA; cell-free; purified GST-IRF3-IR and His-AXIN1-RGS (n = 3); which one was coated is not told. Particulars: both partners purified. On the technique in general: An ELISA detects its analyte on a solid surface through an enzyme-linked reagent.

B1: His-AXIN1-RGS (His-tagged AXIN1 RGS domain) (domain or fragment, UniProt O15169 88-211, looked up)
chain: SLHSLLDDQDGISLFRTFLKQEGCADLLDFWFACTGFRKLEPCDSNEEKRLKLARAIYRKYILDNNGIVSRQTKPATKSFIKGCIMKQLIDPAMFDQAQTEIQATMEENTYPSFLKSDIYLEYT
notes: RGS domain of AXIN1; source: purified
By EC50 is commonly meant the concentration needed to bring the measured effect to its halfway point. Consider B1, for which the concentration for a half-maximal effect (EC50) is 1.72 nM.
